Values joined by “and” are separate entries in the source; they are usually repeats but may differ in a detail not shown here. Equal values may be shown once. Where a SMILES comes first, the peptide text is derived from it. Bridges are numbered along the chain shown (N, C = ends). Where no end group is shown, it is not given here.
Assays:
non-transfected cells = assay: Intracellular calcium ([Ca2+]i) measurement with fura-2 in non-transfected cells; assay type: cell-based, human; settings: data not shown
Excerpt: (§1) The entire coding sequence of human HG67 was cloned into BamHI -NotI site of pEF1/V5-HisB plasmid vector (Invitrogen, Carlsbad, Calif.). The resultant construct was transfected into HEK-293T cells using Effectene (Qiagen, Hilden, Germany) or LipofectAmine PLUS (Life Technologies) according to the manufacture's instructions. Human embryonic kidney cells constitutively expressing SV40 large T antigen (HEK-293T) were maintained in D-MEM/F-12 medium (Life Technologies, Rockville, Md.) supplemented with 10% fetal bovine serum, 100 units/ml penicillin-G and 100 μg/ml streptomycin at 37° C. with 5% CO2 in a humidified atmosphere.
(§2) The intracellular calcium ion concentration ([Ca^2+]i) was measured fluorometrically using a Ca^2+-sensitive fluorescent dye, fura-2. HEK293T cells transiently transfected with pEF1/V5-HisB plasmid vector harboring HG67 cDNA were harvested by phosphate-buffered saline containing 2 mM EDTA 48 hours after transfection, and washed once with the assay buffer (Hanks' balanced salt solution, 10 mM HEPES, 0.1% BSA, pH 7.4). The cells were suspended with the buffer containing 2 μM fura-2 acetoxymethylester (Dojin, Kumamoto, Japan) into the cell density of 1.0×10^7 cells/ml and incubated at 37° C. for 60 minutes with gently shaking. The fura-2-loaded cells were washed twice with the buffer and re-suspended with the buffer to 1.0×10^6 cells/ml. […]

HG67 = target: T1, HG67 (Homo sapiens, UniProt Q969V1); assay: Intracellular calcium ([Ca2+]i) measurement with fura-2 in HEK293T cells transiently expressing HG67; assay type: cell-based; settings: HEK293T cells transiently expressing HG67, fura-2; read-out: EC50 of increase in intracellular calcium levels
T1 construct: expressed in transfected cells; host or cells: HEK-293T, transient
T1 sequence (Q969V1 whole entry): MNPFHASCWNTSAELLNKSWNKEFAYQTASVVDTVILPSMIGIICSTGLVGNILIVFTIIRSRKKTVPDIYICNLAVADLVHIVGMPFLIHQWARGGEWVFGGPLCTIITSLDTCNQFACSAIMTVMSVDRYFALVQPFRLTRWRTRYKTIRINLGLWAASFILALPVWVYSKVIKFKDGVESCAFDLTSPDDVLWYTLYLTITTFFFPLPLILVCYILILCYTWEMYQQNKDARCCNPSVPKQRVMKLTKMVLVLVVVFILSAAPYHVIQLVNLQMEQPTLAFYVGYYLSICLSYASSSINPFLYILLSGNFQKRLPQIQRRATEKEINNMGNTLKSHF
Excerpt: as §1, §2

MCH-R1 [1] = target: T2, MCH-R1 (Homo sapiens, UniProt Q99705); assay: SPA, displacement of [125I]Phe13Tyr19-MCH from MCH-R1 membranes
[2] = target: HG67 (melanin-concentrating hormone receptor 2) (human) (UniProt Q969V1); assay: SPA, displacement of [125I]Phe13Tyr19-MCH from MCH-R2 membranes
Chain of HG67 (melanin-concentrating hormone receptor 2) (human) (Q969V1 whole entry): as above

[3] = target: HG67 (melanin-concentrating hormone receptor 2) (human) (UniProt Q969V1); assay: cell-based or functional assay
MCH-R1 [4] = target: T2, MCH-R1; assay: cell-based or functional assay
[5] = target: HG67 (melanin-concentrating hormone receptor 2) (human) (UniProt Q969V1); assay: SPA, COS or CHO MCH-R2 membranes, nonspecific defined with 500 nM unlabeled MCH
MCH-R1 [6] = target: T2, MCH-R1; assay: SPA, CHO/MCH-R1 membranes, nonspecific defined with 500 nM unlabeled MCH
mock transfected cells = assay: [125I]-MCH binding to mock transfected HEK293T cells; parameters: species or system human
MCH-R1 [7] = target: T2, MCH-R1; settings: Lembo, et al., 1999; cited from earlier work
MCH-R1 [8] = target: T2, MCH-R1; assay: Pertussis toxin effect on MCH-R1 signaling; assay type: cell-based; settings: dose dependent
Excerpt: MCH-R2 appears to activate Gαq. […] Intracellular calcium mobilization through MCH-R2 was not affected by different concentrations of pertussis toxin (PTX), while MCH-R1 signaling was reduced in a dose dependent manner to about 50%. The results of incomplete PTX-inhibition of MCH-R1 signaling is in contrast to Lembo, et al., 1999. […] (Tadayyon, et al., 2000. 275(2), 709-712).

MCH-R1 [9] = target: T3, MCH-R1 (Homo sapiens (Human), UniProt Q99705 1-353); assay: SPA, displacement of [125I]Phe13Tyr19-MCH from MCH-R1 membranes
T3 construct: also called MCH-1R; CHO/MCH-R1
T3 sequence (Q99705 whole entry, form in doubt): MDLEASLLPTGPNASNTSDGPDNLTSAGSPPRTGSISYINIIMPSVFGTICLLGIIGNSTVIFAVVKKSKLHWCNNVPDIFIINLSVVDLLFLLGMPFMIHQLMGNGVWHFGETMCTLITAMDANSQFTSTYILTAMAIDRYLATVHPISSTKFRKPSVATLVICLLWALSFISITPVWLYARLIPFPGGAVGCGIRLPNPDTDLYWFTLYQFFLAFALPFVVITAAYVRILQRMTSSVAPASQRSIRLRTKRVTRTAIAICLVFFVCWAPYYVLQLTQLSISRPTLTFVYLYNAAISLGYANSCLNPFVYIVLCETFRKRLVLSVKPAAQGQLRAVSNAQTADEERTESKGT
Description: (§3) SPA was carried out using wheat-germ agglutinin-polyvinyltoluene beads (Amersham Corp., Arlington Heights, Ill.), in 96-well OptiPlates (Packard, Meriden, Conn.). Each well contained 0.25 mg of SPA beads, 1–10 μg of membrane protein, and 200 μl of binding buffer.
(§4) After equilibrating at room temperature for 3 hours, the plates were read in a TopCount (Packard, Meriden, Conn.). IC$50$ calculations were performed using Prism 3.0 (GraphPad Software, San Diego, Calif.).

MCH-R1 [10] = target: T3, MCH-R1; assay: cell-based or functional assay
[11] = target: T4, HG67 (melanin-concentrating hormone receptor 2) (human, UniProt Q969V1 1-340); assay: cell-based or functional assay
T4 sequence (Q969V1 whole entry): as the sequence (Q969V1 whole entry) above

[12] = target: T4, HG67 (melanin-concentrating hormone …); assay: SPA, displacement of [125I]Phe13Tyr19-MCH from MCH-R2 membranes
Description: as §3, §4

[13] = target: T4, HG67 (melanin-concentrating hormone …); assay: cell-based or functional assay; remark: listed apart in the source

Molecule: CSCC[C@@H]1NC(=O)[C@@H](NC(=O)[C@H](CCCNC(=N)N)NC(=O)[C@H](CC(C)C)NC(=O)[C@H](CCSC)NC(=O)[C@H](CC(=O)O)NC(=O)[C@H](Cc2ccccc2)NC(=O)[C@@H](N)CC(=O)O)CSSC[C@@H](C(=O)N[C@@H](Cc2c[nH]c3ccccc23)C(=O)N[C@@H](CCC(N)=O)C(=O)N[C@@H](CC(C)C)C(=O)O)NC(=O)[C@@H]2CCCN2C(=O)[C@H](CCCNC(=N)N)NC(=O)[C@H](Cc2ccccc2)NC(=O)[C@H](C(C)C)NC(=O)[C@H](CCCNC(=N)N)NC(=O)CNC(=O)[C@H](CC(C)C)NC1=O [[Phe^13, Leu^19]-MCH] (H-DFDMLRCMLGRVFRPCWQL-OH; disulfide 7-16 (inferred); N-terminus and C-terminus assumed)
- [Ca2+]i increase in the non-transfected cells (non-transfected cells): failed to induce detectable [Ca^2+]i increase
- EC50 (HG67): 0.078 nM

Molecule: Melanin-concentrating hormone [MCH]
- [Ca2+]i increase in the non-transfected cells (non-transfected cells): failed to induce detectable [Ca^2+]i increase

Molecule: Salmon MCH (peptide)
- IC50 (MCH-R1 [1]): 0.2 nM
- IC50 [2]: 437 nM
- Function (EC50) [3]: 90.5 nM
- Function (EC50) (MCH-R1 [4]): 119 nM

Molecule: [125I]Phe^13Tyr^19-MCH (from UniProt P20382 147-165) (peptide)
- specific binding window [5]: 3 x
- specific binding window (MCH-R1 [6]): 6 x

Molecule: [Phe^13, Leu^19]-MCH (from UniProt P20382 147-165) (peptide)
- increase in intracellular calcium levels (fura-2), EC50 [3]: 0.078 nM

Molecule: [^125I]-MCH: radioiodinated MCH, NEN Life Science Products
- Specific binding to mock transfected cells (mock transfected cells; in words): any specific binding was not observed
- Nonspecific binding (1 μM MCH) (mock transfected cells; mock transfected HEK293T cells, [125I]-MCH 100 pM plus 1 μM cold MCH, two values per cell): 352.2 Cpm and 326.6 Cpm
- Total binding (DMSO) (mock transfected cells; mock transfected HEK293T cells, [125I]-MCH 100 pM, two values per cell): 516.4 Cpm and 392.5 Cpm

Molecule: pertussis toxin
- PTX inhibition of MCH-1R signaling (MCH-R1 [7]): complete PTX inhibition
- MCH-R1 signaling remaining after PTX (reduced to) (MCH-R1 [8]): about 50%

B1: (Phe^13Tyr^19)-MCH (peptide)
chain: DFDMLRCMLGRVFRPCWQY
- IC50 (MCH-R1 [9]): 0.3 nM
- Function (EC50) (MCH-R1 [10]): 83.1 nM
- Function (EC50) [11]: 65.5 nM
- IC50 [12]: 0.8 nM

B2: human melanin-concentrating hormone (MCH) (peptide, UniProt P20382 147-165, looked up)
peptide: DFDMLRCMLGRVYRPCWQV
modifications: ends and bridges not checked; cysteine pairing not given here
notes: mature; Both are treated as one molecule; the mature 19-mer is its C-terminal part; also called Human MCH; cold MCH
- Function (EC50) [11]: 44.1 nM
- IC50 [12]: 1.5 nM
- IP turnover, EC50 [13]: 2.8 nM
- aequorin assay in HEK293/aeq17/Galpha15 cells, EC50 [13]: 26 nM
- increase in intracellular calcium levels (fura-2), EC50 [13]: 0.02 nM
